Measured values from the RNAGym collection of RNA variant scans (doi:10.7554/elife.80360).

B1: Hammerhead Ribozyme (parent)
chain: ACCGGAUGUGCUUUCCGGUCUGAUGAGUCCGUGAGGACGAAACAG

Variants of: B1
Assay: self-cleavage, relative activity (ratio to wild type); higher = more cleavage; co-transcriptional

Variant	self-cleavage
ACCGGAUGUUCUUUCCGGUCUGAUGAGUCCGUGAGGACGAGACAG [G10U A41G]	0.372
ACCGGAUGUUCUUUCCGGUCUGAUGAGUCCGUGAGGACGACACAG [G10U A41C]	0.422
ACCGGAUGUUCUUUCCGGUCUGAUGAGUCCGUGAGGACGAUACAG [G10U A41U]	0.358
ACCGGAUGUUCUUUCCGGUCUGAUGCGUCCGUGAGGACGAAACAG [G10U A26C]	0.439
ACCGGAUGUUCUUUCCGGUCUGAUGUGUCCGUGAGGACGAAACAG [G10U A26U]	0.873
ACCGGAUGUUCUUUCCGGUCUGAUGGGUCCGUGAGGACGAAACAG [G10U A26G]	0.317
ACCGGAUGUUCUUUCCGGUCUGAUGAGUCCGUGAAGACGAAACAG [G10U G35A]	0.838
ACCGGAUGUUCUUUCCGGUGUGAUGAGUCCGUGAGGACGAAACAG [G10U C20G]	0.343
ACCGGAUGUUCUUUCCGGUUUGAUGAGUCCGUGAGGACGAAACAG [G10U C20U]	0.579
ACCGGAUGUUCUUUCCGGUAUGAUGAGUCCGUGAGGACGAAACAG [G10U C20A]	0.42
ACCGGAUGUUCUUUCCGGUCUGAUGAGUCCAUGAGGACGAAACAG [G10U G31A]	0.989
ACCGGAUGUUCUUUCCGGUCUGAUGAGUCCUUGAGGACGAAACAG [G10U G31U]	0.736
ACCGGAUGUUCUUUCCGGUCUGAUGAGUCCCUGAGGACGAAACAG [G10U G31C]	0.998
ACCGGAUGUUCUUUCCGGUCUGAUGAGUCCGUGAGGACGAAACAG [G10U]	1.07
ACCGGAUGUUCUUUGCGGUCUGAUGAGUCCGUGAGGACGAAACAG [G10U C15G]	0.826
ACCGGAUGUUCUUUUCGGUCUGAUGAGUCCGUGAGGACGAAACAG [G10U C15U]	1.07
ACCGGAUGUUCUUUACGGUCUGAUGAGUCCGUGAGGACGAAACAG [G10U C15A]	0.817
ACCGGAUGUCCUUCCCGGUCUGAUGAGUCCGUGAGGACGAAACAG [G10C U14C]	1.28
ACCGGAUGUCCUUACCGGUCUGAUGAGUCCGUGAGGACGAAACAG [G10C U14A]	0.796
ACCGGAUGUCCUUGCCGGUCUGAUGAGUCCGUGAGGACGAAACAG [G10C U14G]	0.606
ACCGGAUGUCCUUUCCGGUCUGAUGAGUCCGUGAGUACGAAACAG [G10C G36U]	0.56
ACCGGAUGUCCUUUCCGGUCUGAUGAGUCCGUGAGCACGAAACAG [G10C G36C]	0.84
ACCGGAUGUCCUUUCCGGUCUGAUGAGUCCGUGAGAACGAAACAG [G10C G36A]	0.586

Variant	self-cleavage
ACCGGAUGUUCUUUCCGGUCUGCUGAGUCCGUGAGGACGAAACAG [G10U A23C]	0.47
ACCGGAUGUUCUUUCCGGUCUGGUGAGUCCGUGAGGACGAAACAG [G10U A23G]	0.388
ACCGGAUGUUCUUUCCGGUCUGUUGAGUCCGUGAGGACGAAACAG [G10U A23U]	0.421
ACCGGAUGUCCUUUCCGGUCUGAUGAGUCCAUGAGGACGAAACAG [G10C G31A]	1.25
ACCGGAUGUCCUUUCCGGUCUGAUGAGUCCCUGAGGACGAAACAG [G10C G31C]	0.704
ACCGGAUGUCCUUUCCGGUCUGAUGAGUCCUUGAGGACGAAACAG [G10C G31U]	1.19
ACCGGAUGUUCUUUCCGGUCUGAUGAGUCCGUGAGGUCGAAACAG [G10U A37U]	0.768
ACCGGAUGUUCUUUCCGGUCUGAUGAGUCCGUGAGGGCGAAACAG [G10U A37G]	0.877
ACCGGAUGUUCUUUCCGGUCUGAUGAGUCCGUGAGGCCGAAACAG [G10U A37C]	0.934
ACCGGAUGUUCUUUCCGGUCUGAUAAGUCCGUGAGGACGAAACAG [G10U G25A]	0.313
ACCGGAUGUUCUUUCCGGUCUGAUUAGUCCGUGAGGACGAAACAG [G10U G25U]	0.314
ACCGGAUGUUCUUUCCGGUCUGAUCAGUCCGUGAGGACGAAACAG [G10U G25C]	0.375
ACCGGAUGUUCUUUCCGCUCUGAUGAGUCCGUGAGGACGAAACAG [G10U G18C]	0.682
ACCGGAUGUUCUUUCCGAUCUGAUGAGUCCGUGAGGACGAAACAG [G10U G18A]	0.836
ACCGGAUGUUCUUUCCGUUCUGAUGAGUCCGUGAGGACGAAACAG [G10U G18U]	0.877
ACCGGAUGUCCUUUCCGGUCUGAUGAGUCCGUCAGGACGAAACAG [G10C G33C]	0.937
ACCGGAUGUCCUUUCCGGUCUGAUGAGUCCGUAAGGACGAAACAG [G10C G33A]	1.14
ACCGGAUGUCCUUUCCGGUCUGAUGAGUCCGUUAGGACGAAACAG [G10C G33U]	0.934
ACCGGAUGUUCUUUCCGGUCUGAUGAGUGCGUGAGGACGAAACAG [G10U C29G]	0.621
ACCGGAUGUUCUUUCCGGUCUGAUGAGUUCGUGAGGACGAAACAG [G10U C29U]	0.94
ACCGGAUGUUCUUUCCGGUCUGAUGAGUACGUGAGGACGAAACAG [G10U C29A]	0.658
ACCGGAUGUUCUUUCAGGUCUGAUGAGUCCGUGAGGACGAAACAG [G10U C16A]	1.06
ACCGGAUGUUCUUUCUGGUCUGAUGAGUCCGUGAGGACGAAACAG [G10U C16U]	1.17

Variant	self-cleavage
ACCGGAUGUUCUUUCGGGUCUGAUGAGUCCGUGAGGACGAAACAG [G10U C16G]	1.01
ACCGGAUGUCCUUUCCGGACUGAUGAGUCCGUGAGGACGAAACAG [G10C U19A]	0.317
ACCGGAUGUCCUUUCCGGCCUGAUGAGUCCGUGAGGACGAAACAG [G10C U19C]	0.503
ACCGGAUGUCCUUUCCGGGCUGAUGAGUCCGUGAGGACGAAACAG [G10C U19G]	0.353
ACCGGAUGUCCUUUCCGGUCUGAUGAUUCCGUGAGGACGAAACAG [G10C G27U]	0.555
ACCGGAUGUUCUUUCCGGUCUGAUGAGUCCGUGUGGACGAAACAG [G10U A34U]	0.864
ACCGGAUGUUCUUUCCGGUCUGAUGAGUCCGUGCGGACGAAACAG [G10U A34C]	1.13
ACCGGAUGUUCUUUCCGGUCUGAUGAGUCCGUGGGGACGAAACAG [G10U A34G]	0.942
ACCGGAUGUUCUUUCCGGUCUGAUGAAUCCGUGAGGACGAAACAG [G10U G27A]	0.825
ACCGGAUGUUCUUUCCGGUCUGAUGAUUCCGUGAGGACGAAACAG [G10U G27U]	0.507
ACCGGAUGUUCUUUCCGGUCUGAUGACUCCGUGAGGACGAAACAG [G10U G27C]	0.861
ACCGGAUGUCCUUUCCGGUCUGAUGAGUCCGAGAGGACGAAACAG [G10C U32A]	1.09
ACCGGAUGUCCUUUCCGGUCUGAUGAGUCCGCGAGGACGAAACAG [G10C U32C]	1.3
ACCGGAUGUCCUUUCCGGUCUGAUGAGUCCGGGAGGACGAAACAG [G10C U32G]	0.638
ACCGGAUGUCCGUUCCGGUCUGAUGAGUCCGUGAGGACGAAACAG [G10C U12G]	1.09
ACCGGAUGUCCAUUCCGGUCUGAUGAGUCCGUGAGGACGAAACAG [G10C U12A]	0.954
ACCGGAUGUCCCUUCCGGUCUGAUGAGUCCGUGAGGACGAAACAG [G10C U12C]	1.26
ACCGGAUGUCCUGUCCGGUCUGAUGAGUCCGUGAGGACGAAACAG [G10C U13G]	1.24
ACCGGAUGUCCUAUCCGGUCUGAUGAGUCCGUGAGGACGAAACAG [G10C U13A]	1.03
ACCGGAUGUCCUCUCCGGUCUGAUGAGUCCGUGAGGACGAAACAG [G10C U13C]	1.03
ACCGGAUGUUCUUUCCGGUCUGAUGAGUCCGUGAGGACGAAACUG [G10U A44U]	0.686
ACCGGAUGUUCUUUCCGGUCUGAUGAGUCCGUGAGGACGAAACGG [G10U A44G]	1.57
ACCGGAUGUUCUUUCCGGUCUGAUGAGUCCGUGAGGACGAAACCG [G10U A44C]	0.534

Variant	self-cleavage
ACCGGAUGUUCUUUCCGGUCUGAUGAGUCCGUGAGGACGGAACAG [G10U A40G]	0.36
ACCGGAUGUUCUUUCCGGUCUGAUGAGUCCGUGAGGACGCAACAG [G10U A40C]	0.548
ACCGGAUGUUCUUUCCGGUCUGAUGAGUCCGUGAGGACGUAACAG [G10U A40U]	0.338
ACCGGAUGUCCUUUCCGGUCUGAGGAGUCCGUGAGGACGAAACAG [G10C U24G]	1.06
ACCGGAUGUCCUUUCCGGUCUGAAGAGUCCGUGAGGACGAAACAG [G10C U24A]	0.811
ACCGGAUGUCCUUUCCGGUCUGACGAGUCCGUGAGGACGAAACAG [G10C U24C]	0.853
ACCGGAUGUCCUUUCCGGUCUGAUGAGUCCGUGAGGACAAAACAG [G10C G39A]	0.368
ACCGGAUGUCCUUUCCGGUCUGAUGAGUCCGUGAGGACUAAACAG [G10C G39U]	0.307
ACCGGAUGUCCUUUCCGGUCUGAUGAGUCCGUGAGGACCAAACAG [G10C G39C]	0.324
ACCGGAUGUUCUUUCCGGUCUUAUGAGUCCGUGAGGACGAAACAG [G10U G22U]	0.351
ACCGGAUGUUCUUUCCGGUCUCAUGAGUCCGUGAGGACGAAACAG [G10U G22C]	0.351
ACCGGAUGUUCUUUCCGGUCUAAUGAGUCCGUGAGGACGAAACAG [G10U G22A]	0.354
ACCGGAUGUCCUUUCCGGUCUGAUGAGACCGUGAGGACGAAACAG [G10C U28A]	0.381
ACCGGAUGUCCUUUCCGGUCUGAUGAGCCCGUGAGGACGAAACAG [G10C U28C]	1.01
ACCGGAUGUCCUUUCCGGUCUGAUGAGGCCGUGAGGACGAAACAG [G10C U28G]	0.38
ACCGGAUGUCCUUUCCGGUCUGAUGAGUCCGUGACGACGAAACAG [G10C G35C]	0.497
ACCGGAUGUCCUUUCCGGUCUGAUGAGUCCGUGAUGACGAAACAG [G10C G35U]	0.818
ACCGGAUGUCCUUUCCGGUCUGAUGAGUCCGUGAAGACGAAACAG [G10C G35A]	0.848
ACCGGAUGUUCUUUCCGGUCUGAUGAGUCCGUGAGGACGAAUCAG [G10U A42U]	0.304
ACCGGAUGUUCUUUCCGGUCUGAUGAGUCCGUGAGGACGAAGCAG [G10U A42G]	0.344
ACCGGAUGUUCUUUCCGGUCUGAUGAGUCCGUGAGGACGAACCAG [G10U A42C]	0.45
ACCGGAUGUUCUUUCCGGUCUGAUGAGUCCGUGAGGACGAAAUAG [G10U C43U]	0.537
ACCGGAUGUUCUUUCCGGUCUGAUGAGUCCGUGAGGACGAAAAAG [G10U C43A]	0.354

Variant	self-cleavage
ACCGGAUGUUCUUUCCGGUCUGAUGAGUCCGUGAGGACGAAAGAG [G10U C43G]	0.405
ACCGGAUGUUAUUUCCGGUCUGAUGAGUCCGUGAGGACGAAACAG [G10U C11A]	1.25
ACCGGAUGUUUUUUCCGGUCUGAUGAGUCCGUGAGGACGAAACAG [G10U C11U]	1.14
ACCGGAUGUUGUUUCCGGUCUGAUGAGUCCGUGAGGACGAAACAG [G10U C11G]	1.2
ACCGGAUGUUCUUUCCGGUCUGAUGAGUCCGUGAGGAAGAAACAG [G10U C38A]	0.645
ACCGGAUGUUCUUUCCGGUCUGAUGAGUCCGUGAGGAUGAAACAG [G10U C38U]	1.09
ACCGGAUGUUCUUUCCGGUCUGAUGAGUCCGUGAGGAGGAAACAG [G10U C38G]	0.848
ACCGGAUGUUCUUUCCGGUCUGAUGAGUCCGUCAGGACGAAACAG [G10U G33C]	1.1
ACCGGAUGUUCUUUCCGGUCUGAUGAGUCCGUAAGGACGAAACAG [G10U G33A]	1.13
ACCGGAUGUUCUUUCCGGUCUGAUGAGUCCGUUAGGACGAAACAG [G10U G33U]	1.05
ACCGGAUGUCCUUUCCGGUCGGAUGAGUCCGUGAGGACGAAACAG [G10C U21G]	0.414
ACCGGAUGUCCUUUCCGGUCAGAUGAGUCCGUGAGGACGAAACAG [G10C U21A]	0.533
ACCGGAUGUCCUUUCCGGUCCGAUGAGUCCGUGAGGACGAAACAG [G10C U21C]	0.673
ACCGGAUGUCCUUUCCGGUCUGAUGAGUCCGUGAGGACGAAACAA [G10C G45A]	0.996
ACCGGAUGUCCUUUCCGGUCUGAUGAGUCCGUGAGGACGAAACAU [G10C G45U]	0.812
ACCGGAUGUCCUUUCCGGUCUGAUGAGUCCGUGAGGACGAAACAC [G10C G45C]	0.783
ACCGGAUGUUCUUUCCUGUCUGAUGAGUCCGUGAGGACGAAACAG [G10U G17U]	0.848
ACCGGAUGUUCUUUCCAGUCUGAUGAGUCCGUGAGGACGAAACAG [G10U G17A]	0.957
ACCGGAUGUUCUUUCCCGUCUGAUGAGUCCGUGAGGACGAAACAG [G10U G17C]	0.649
ACCGGAUGUUCUUUCCGGUCUGAUGAGUCGGUGAGGACGAAACAG [G10U C30G]	1
ACCGGAUGUUCUUUCCGGUCUGAUGAGUCUGUGAGGACGAAACAG [G10U C30U]	1.07
ACCGGAUGUUCUUUCCGGUCUGAUGAGUCAGUGAGGACGAAACAG [G10U C30A]	0.844
